For 1 molecule, % Recovery of TEM-1 QCs spiked with MORAb-004 results are on record in US20150337051A1 (MORPHOTEK, published 2015).

Assay [1] has as its target T1, recombinant CHO TEM-1 Fc fusion protein (UniProt Q9HCU0).
T1 sequence (looked up): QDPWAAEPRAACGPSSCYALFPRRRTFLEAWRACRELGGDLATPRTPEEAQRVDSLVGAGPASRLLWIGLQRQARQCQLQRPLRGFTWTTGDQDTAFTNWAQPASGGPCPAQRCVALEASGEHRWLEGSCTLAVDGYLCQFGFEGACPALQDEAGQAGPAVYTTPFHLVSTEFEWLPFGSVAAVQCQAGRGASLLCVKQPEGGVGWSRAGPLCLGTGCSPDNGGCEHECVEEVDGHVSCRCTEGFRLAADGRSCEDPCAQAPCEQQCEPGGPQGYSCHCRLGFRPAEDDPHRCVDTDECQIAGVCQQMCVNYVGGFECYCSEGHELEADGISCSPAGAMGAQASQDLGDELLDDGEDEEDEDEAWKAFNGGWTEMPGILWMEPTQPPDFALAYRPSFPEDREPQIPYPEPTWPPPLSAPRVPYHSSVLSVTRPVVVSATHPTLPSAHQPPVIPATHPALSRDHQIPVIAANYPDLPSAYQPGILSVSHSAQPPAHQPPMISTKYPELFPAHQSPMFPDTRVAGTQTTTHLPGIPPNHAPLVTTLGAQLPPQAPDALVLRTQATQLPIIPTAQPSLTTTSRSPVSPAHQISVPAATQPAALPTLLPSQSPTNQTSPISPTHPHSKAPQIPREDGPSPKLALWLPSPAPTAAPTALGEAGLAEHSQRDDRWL
As to the kind of experiment: ECL sandwich, competition: biotin-9G5 capture, sulfo-TAG-15F8 detection; MORAb-004 spike 6.25 µg/mL, TEM-1-Fc QC 10 ng/mL; recovery at 0 µg/mL MORAb-004: 105.

Assay [2] deals with T1, recombinant CHO TEM-1 Fc fusion protein. As to the kind of experiment: ECL sandwich, competition: biotin-9G5 capture, sulfo-TAG-15F8 detection; MORAb-004 spike 50 µg/mL, TEM-1-Fc QC 50 ng/mL; recovery at 0 µg/mL MORAb-004: 104.
The target is the same in assay [3]. Briefly: ECL sandwich, competition: biotin-9G5 capture, sulfo-TAG-15F8 detection; MORAb-004 spike 3.125 µg/mL, TEM-1-Fc QC 2 ng/mL; recovery at 0 µg/mL MORAb-004: 106.
The target is the same in assay [4]. Briefly: ECL sandwich, competition: biotin-9G5 capture, sulfo-TAG-15F8 detection; MORAb-004 spike 1.5625 µg/mL, TEM-1-Fc QC 10 ng/mL; recovery at 0 µg/mL MORAb-004: 105.
Assay [5] has the same target. As to the kind of experiment: ECL sandwich, competition: biotin-9G5 capture, sulfo-TAG-15F8 detection; MORAb-004 spike 0.78125 µg/mL, TEM-1-Fc QC 10 ng/mL; recovery at 0 µg/mL MORAb-004: 105.
The target is the same in assay [6]. Briefly: ECL sandwich, competition: biotin-9G5 capture, sulfo-TAG-15F8 detection; MORAb-004 spike 12.5 µg/mL, TEM-1-Fc QC 10 ng/mL; recovery at 0 µg/mL MORAb-004: 105.
Assay [7] shares this target. Briefly: ECL sandwich, competition: biotin-9G5 capture, sulfo-TAG-15F8 detection; MORAb-004 spike 0.78125 µg/mL, TEM-1-Fc QC 0.08 ng/mL; recovery at 0 µg/mL MORAb-004: 114.
Assay [8] shares this target. As to the kind of experiment: ECL sandwich, competition: biotin-9G5 capture, sulfo-TAG-15F8 detection; MORAb-004 spike 6.25 µg/mL, TEM-1-Fc QC 50 ng/mL; recovery at 0 µg/mL MORAb-004: 104.
Assay [9] shares this target. Briefly: ECL sandwich, competition: biotin-9G5 capture, sulfo-TAG-15F8 detection; MORAb-004 spike 12.5 µg/mL, TEM-1-Fc QC 0.08 ng/mL; recovery at 0 µg/mL MORAb-004: 114.
Assay [10] shares this target. Briefly: ECL sandwich, competition: biotin-9G5 capture, sulfo-TAG-15F8 detection; MORAb-004 spike 3.125 µg/mL, TEM-1-Fc QC 0.08 ng/mL; recovery at 0 µg/mL MORAb-004: 114.
Assay [11] shares this target. Briefly: ECL sandwich, competition: biotin-9G5 capture, sulfo-TAG-15F8 detection; MORAb-004 spike 0.78125 µg/mL, TEM-1-Fc QC 0.4 ng/mL; recovery at 0 µg/mL MORAb-004: 109.
Assay [12] has the same target. As to the kind of experiment: ECL sandwich, competition: biotin-9G5 capture, sulfo-TAG-15F8 detection; MORAb-004 spike 12.5 µg/mL, TEM-1-Fc QC 50 ng/mL; recovery at 0 µg/mL MORAb-004: 104.
The target is the same in assay [13]. Briefly: ECL sandwich, competition: biotin-9G5 capture, sulfo-TAG-15F8 detection; MORAb-004 spike 0.78125 µg/mL, TEM-1-Fc QC 50 ng/mL; recovery at 0 µg/mL MORAb-004: 104.
For assay [14] the target is unchanged. As to the kind of experiment: ECL sandwich, competition: biotin-9G5 capture, sulfo-TAG-15F8 detection; MORAb-004 spike 1.5625 µg/mL, TEM-1-Fc QC 2 ng/mL; recovery at 0 µg/mL MORAb-004: 106.
For assay [15] the target is unchanged. Briefly: ECL sandwich, competition: biotin-9G5 capture, sulfo-TAG-15F8 detection; MORAb-004 spike 25 µg/mL, TEM-1-Fc QC 10 ng/mL; recovery at 0 µg/mL MORAb-004: 105.

B1: MORAb-004 (antibody, INN chains, looked up, V domains shown)
VH: QVQLQESGPGLVRPSQTLSLTCTASGYTFTDYVIHWVKQPPGRGLEWIGYINPYDDDTTYNQKFKGRVTMLVDTSSNTAYLRLSSVTAEDTAVYYCARRGNSYDGYFDYSMDYWGSGTPVTVSS
VL: DIQMTQSPSSLSASVGDRVTITCRASQNVGTAVAWLQQTPGKAPKLLIYSASNRYTGVPSRFSGSGSGTDYTFTISSLQPEDIATYYCQQYTNYPMYTFGQGTKVQIK
As for B1, the % Recovery of TEM-1 QCs spiked with MORAb-004 in assay [1] was found to be 94.4%; in [2] it was 93.1%; in [3], 96%; in assay [4], 97.7%; in assay [5], 100%; in assay [6], 91.2%. For the same molecule, the % Recovery of TEM-1 QCs spiked with MORAb-004 was determined as 107% in [7]; 95.7% in [8]; 99.4% in [9]; 103% in [10]; 105% in assay [11]; 92.1% in [12]. The % Recovery of TEM-1 QCs spiked with MORAb-004 in [13] came out at 99.3%; in assay [14], 98.9%; in [15], 91.3%.
